Data on 1 molecule can be found in patent US20080292632A1 (US Dept. of Health and Human Services, published 2008).

The experiment concerns the target T1, IRTA2 extracellular domain-Fc fusion protein (human, UniProt Q96RD9 16-851).
T1 construct: extracellular domain; also called IRTA2-Fc; IRTA2-HFc; not shown: human IgG1 hinge and Fc
T1 sequence (looked up): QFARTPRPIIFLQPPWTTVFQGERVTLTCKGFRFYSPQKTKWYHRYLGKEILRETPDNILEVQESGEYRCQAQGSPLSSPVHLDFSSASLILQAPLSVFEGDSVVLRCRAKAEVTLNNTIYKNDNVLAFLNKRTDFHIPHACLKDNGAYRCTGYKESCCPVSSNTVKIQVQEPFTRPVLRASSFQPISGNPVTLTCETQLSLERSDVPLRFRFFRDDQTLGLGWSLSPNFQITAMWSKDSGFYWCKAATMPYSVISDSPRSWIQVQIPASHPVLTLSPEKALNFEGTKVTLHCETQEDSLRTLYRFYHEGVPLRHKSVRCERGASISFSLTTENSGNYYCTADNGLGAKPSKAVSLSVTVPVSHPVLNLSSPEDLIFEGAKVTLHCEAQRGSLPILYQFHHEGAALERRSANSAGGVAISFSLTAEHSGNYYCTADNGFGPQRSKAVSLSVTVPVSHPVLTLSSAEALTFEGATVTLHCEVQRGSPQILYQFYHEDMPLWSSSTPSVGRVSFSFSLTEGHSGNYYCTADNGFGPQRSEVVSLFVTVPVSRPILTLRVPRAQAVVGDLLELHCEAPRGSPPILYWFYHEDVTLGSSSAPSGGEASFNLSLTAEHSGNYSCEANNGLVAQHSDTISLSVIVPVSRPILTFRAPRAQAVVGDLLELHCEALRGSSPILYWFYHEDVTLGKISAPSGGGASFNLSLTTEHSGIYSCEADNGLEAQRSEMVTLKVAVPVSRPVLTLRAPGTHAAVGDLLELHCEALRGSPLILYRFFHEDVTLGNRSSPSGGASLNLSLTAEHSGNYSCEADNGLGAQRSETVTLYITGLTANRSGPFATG
Kind of experiment: equilibrium ELISA (Friguet). As for the experimental part:
ELISA. In a typical indirect ELISA for the screening of hybridomas, microtiter plates (MaxiSorp; Nalge Nunc, Rochester, N.Y.) were coated with 100 ng/50 μl/well of goat anti-human IgG in phosphate buffered saline (PBS) for 2 hours at room temperature. Next, 50 ng/100 μl/well of IRTA2-Fc in blocking buffer (25% DMEM, 5% FBS, 25 mM HEPES, 0.5% bovine serum albumin, 0.1% sodium azide in PBS) was added to each well and incubated for 2 hours at room temperature. After washing with PBS containing 0.05% Tween 20, 50 μl of the hybridoma supernatants were added and incubated for 2 hours at room temperature. After washing, the bound MAbs were detected by a 2-hour incubation with horseradish peroxidase (HRP)-labeled goat anti-mouse IgG (Jackson ImmunoResearch, Grove, Pa.) followed by tetramethylbenzidine (TMB) substrate kit (Pierce, Rockford, Ill.). In some experiments, other IRTA-Fc fusion proteins were used instead of IRTA2-Fc.
Affinity Determination. Affinities (dissociation constant, Kd) of the anti-IRTA2 MAbs to IRTA2-Fc were determined by ELISA as previously described (Friguet et al., J Immunol Methods 77:305-19, 1985). Briefly, each MAb was incubated with various concentrations of IRTA2-Fc at room temperature for 20 hours to reach equilibrium; then the amount of MAb that remains unbound at equilibrium was measured by the indirect ELISA as described above.
For orientation: In an ELISA, binding on a coated surface is turned into a signal by an enzyme label.

B1: F25 (antibody, IgG2a, V domains shown)
VH: EVQLQQSGPELVKPGTSVKMSCKASGYSFTGYFMNWMMQNHGKSLEWIGRINLYNGDTFYNQKFKDKATLTVDKSSNTVHMEFRSLASEDSAVYYCASSLYYFDYWGQGTTFTVSS
VL: DIVMTQSHKFMSTSVGDRVNITCKASQDVGTNVAWYQQKPGQSPKLLIYWASTRQTGVPDRFTGSGSGTDFTLTISNVQSEDLSDYFCQQYSSYPLTFGAGTKLELKR
notes: mouse hybridoma MAb, IgG2a, kappa; also called MAb F25; biotin-MAb F25
As a reminder, the Kd is the constant that tells how readily two partners part at equilibrium. Higher therefore signals a looser complex. Molecule B1 displayed a Kd of 1.2 nM.
